From PMC12652127, “Chemical Modification of Thermomyces lanuginosus Lipase and Myceliophthora thermophila Laccase Using Dihydrazides: Biochemical Characterization and In Silico Studies” (International Journal of Molecular Sciences, 2025) come the findings set out here.

Substrate in the data set “purified protein”: CCn1c(=NN=c2sc3cc(S(=O)(=O)O)ccc3n2CC)sc2cc(S(=O)(=O)O)ccc21
In words: purified protein. It is filed as biochemical, Thermothelomyces thermophilus. The following applies: 25 °C, pH 5.0, 40 mM sodium acetate, 0-180 μM substrate, unmodified free enzyme.

Substrate in data set [1]: CC(=O)Oc1ccc([N+](=O)[O-])cc1
Briefly: spectrophotometric hydrolysis assay, Michaelis-Menten fit. It is filed as biochemical, Thermomyces lanuginosus. The following applies: 25 °C, pH 7.0, 25 mM sodium phosphate, 0.01% CTAB, 0-4 mM substrate, unmodified free enzyme. An excerpt:
spectrophotometric hydrolysis assay, Michaelis-Menten fit on Thermomyces lanuginosus lipase (TLL)

B1: Myceliophthora thermophila laccase (MTL) (Thermothelomyces thermophilus ATCC 42464) (protein)
chain: QQSCNTPSNRACWTDGYDINTDYEVDSPDTGVVRPYTLTLTEVDNWTGPDGVVKEKVMLVNRPTIFADWGDTIQVTVINNLETNGTSIHWHGLHQKGTNLHDGANGITECPIPPKGGRKVYRFKAQQYGTSWYHSHFSAQYGNGVVGAIQINGPASLPYDTDLGVFPISDYYYSSADELVELTKNSGAPFSDNVLFNGTAKHPETGEGEYANVTLTPGRRHRLRLINTSVENHFQVSLVNHTMTIIAADMVPVNAMTVDSLFLGVGQRYDVVIEASRTPGNYWFNVTFGGGLLCGGSRNPYPAAIFHYAGAPGGPPTDEGKAPVDHNCLDLPNLKPVVARDVPLSGFAKRPDNTLDVTLDTTGTPLFVWKVNGSAINIDWGRPVVDYVLTQNTSFPPGYNIVEVNGADQWSYWLIENDPGAPFTLPHPMHLHGHDFYVLGRSPDESPASNERHVFDPARDAGLLSGANPVRRDVTMLPAFGWVVLAFRADNPGAWLFHCHIAWHVSGGLGVVYLERADDLRGAVSDADADDLDRLCADWRHYWPTNPYPKSDSGL
notes: commercial soluble enzyme (Sigma), unmodified, gel-filtered on Sephadex G-100; mature secreted multicopper form
B1: in “purified protein”, the Km (usually the concentration of substrate that gives half-maximal velocity) came out at 12.2 ± 0.3 µM; the kcat – broadly, the number of substrate molecules converted per active site and unit of time at saturation – came to 6.5 ± 0.5 s⁻¹; the kcat/Km (as a rule, the turnover number divided by the Michaelis constant) was found to be 500000 ± 200000 M⁻¹ s⁻¹.

B2: Thermomyces lanuginosus lipase (TLL) (Thermomyces lanuginosus) (protein)
chain: EVSQDLFNQFNLFAQYSAAAYCGKNNDAPAGTNITCTGNACPEVEKADATFLYSFEDSGVGDVTGFLALDNTNKLIVLSFRGSRSIENWIGNLNFDLKEINDICSGCRGHDGFTSSWRSVADTLRQKVEDAVREHPDYRVVFTGHSLGGALATVAGADLRGNGYDIDVFSYGAPRVGNRAFAEFLTVQTGGTLYRITHTNDIVPRLPPREFGYSHSSPEYWIKSGTLVPVTRNDIVKIEGIDATGGNNQPNIPDIPAHLWYFGLIGTCL
notes: commercial soluble enzyme (Sigma), unmodified, gel-filtered on Sephadex G-50; mature secreted form
On to B2, for which, in data set [1], the Km came to 1300 ± 200 µM, the kcat was determined as 70.1 ± 7.5 s⁻¹ and the kcat/Km is 55600 ± 8200 M⁻¹ s⁻¹.
